Results reported in article doi:10.1101/2024.06.16.598887 (bioRxiv, 2024).
Where two headings read alike, the source gives them in different places.

How the values were obtained:
[1] = biological target: T1, pig (Sus scrofa) skeletal muscle alpha-actin (pig (Sus scrofa), UniProt P68137 1-377); experiment: ITC
[2] = biological target: T1, pig (Sus scrofa) skeletal muscle …; experiment: ITC; remark: listed apart in the source

- Kd [1]: 1.6 nM
- dH [1]: -14.1 ± 0.1 kcal/mol
- Kd [2]: 0.8 nM
- dH [2]: -13.6 ± 0.1 kcal/mol
- stoichiometry N [2]: ~1
B1: Anopheles gambiae actin depolymerizing factor (natural protein)
chain: MASGVTVSDVCKTTYEEIKKDKKHRYVIFYIRDEKQIDVEVIGDRNAEYDSFLEDIQKGGPGECRYGLFDFEYMHQCQGTSESSKKQKLFLMSWCPDTAKVKKKMLYSSSFDALKKSLVGVQKYIQATDLSEASREAVEEKLRATDRQ
